Source: US20260167699A1 (Chugai, published 2026)

Target: T1, FcγRIIIa extracellular domain, C-terminal His tag (human, UniProt P08637 17-208)
T1 construct: extracellular domain; also called 3a
Assay: SPR, binding activity relative to GpH7-A5/GpH7-B3/GpL16-k0 (=100)

T1 sequence (P08637 other isoform, or with tags, fused parts or gaps): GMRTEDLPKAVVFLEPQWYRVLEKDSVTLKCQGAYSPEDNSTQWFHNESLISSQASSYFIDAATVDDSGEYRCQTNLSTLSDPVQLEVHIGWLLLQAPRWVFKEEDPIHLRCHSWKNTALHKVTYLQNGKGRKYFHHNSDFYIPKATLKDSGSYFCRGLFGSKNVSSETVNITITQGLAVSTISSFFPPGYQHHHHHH

Binder	He/Con 3a [%]
GpH7-A5/GpH7-B3 variant S239_01G/GpL16-k0 (antibody, human IgG1, kappa, He Ab; also called 3239_01G; copies: 1 + 1 + 2) heavy 1: not shown heavy 2: not shown light: DIVMTQSPLSLPVTPGEPASISCQASESLVHSNRNTYLHWYLQKPGQSPQLLIYKVSNRFSGVPDRFSGSGSGTDFTLKISRVEAEDVGVYYCSQNTHVPPTFGQGTKVEIERTVAAPSVFIFPPSDEQLKSGTASVVCLLNNFYPREAKVQWKVDNALQSGNSQESVTEQDSKDSTYSLSSTLTLSKADYEKHKVYACEVTHQGLSSPVTKSFNRGEC	72
GpH7-A5/GpH7-B3 variant S239_06M/GpL16-k0 (antibody, human IgG1, kappa, He Ab; copies: 1 + 1 + 2) heavy 1: not shown heavy 2: not shown light: DIVMTQSPLSLPVTPGEPASISCQASESLVHSNRNTYLHWYLQKPGQSPQLLIYKVSNRFSGVPDRFSGSGSGTDFTLKISRVEAEDVGVYYCSQNTHVPPTFGQGTKVEIERTVAAPSVFIFPPSDEQLKSGTASVVCLLNNFYPREAKVQWKVDNALQSGNSQESVTEQDSKDSTYSLSSTLTLSKADYEKHKVYACEVTHQGLSSPVTKSFNRGEC	73.9
GpH7-A5/GpH7-B3 variant S239_02A/GpL16-k0 (antibody, human IgG1, kappa, He Ab; copies: 1 + 1 + 2) heavy 1: not shown heavy 2: not shown light: DIVMTQSPLSLPVTPGEPASISCQASESLVHSNRNTYLHWYLQKPGQSPQLLIYKVSNRFSGVPDRFSGSGSGTDFTLKISRVEAEDVGVYYCSQNTHVPPTFGQGTKVEIERTVAAPSVFIFPPSDEQLKSGTASVVCLLNNFYPREAKVQWKVDNALQSGNSQESVTEQDSKDSTYSLSSTLTLSKADYEKHKVYACEVTHQGLSSPVTKSFNRGEC	70.9
GpH7-A5/GpH7-B3 variant S239_03V/GpL16-k0 (antibody, human IgG1, kappa, He Ab; copies: 1 + 1 + 2) heavy 1: not shown heavy 2: not shown light: DIVMTQSPLSLPVTPGEPASISCQASESLVHSNRNTYLHWYLQKPGQSPQLLIYKVSNRFSGVPDRFSGSGSGTDFTLKISRVEAEDVGVYYCSQNTHVPPTFGQGTKVEIERTVAAPSVFIFPPSDEQLKSGTASVVCLLNNFYPREAKVQWKVDNALQSGNSQESVTEQDSKDSTYSLSSTLTLSKADYEKHKVYACEVTHQGLSSPVTKSFNRGEC	72.4
GpH7-A5/GpH7-B3 variant S239_07I/GpL16-k0 (antibody, human IgG1, kappa, He Ab; copies: 1 + 1 + 2) heavy 1: not shown heavy 2: not shown light: DIVMTQSPLSLPVTPGEPASISCQASESLVHSNRNTYLHWYLQKPGQSPQLLIYKVSNRFSGVPDRFSGSGSGTDFTLKISRVEAEDVGVYYCSQNTHVPPTFGQGTKVEIERTVAAPSVFIFPPSDEQLKSGTASVVCLLNNFYPREAKVQWKVDNALQSGNSQESVTEQDSKDSTYSLSSTLTLSKADYEKHKVYACEVTHQGLSSPVTKSFNRGEC	75
GpH7-A5/GpH7-B3 variant S239_08L/GpL16-k0 (antibody, human IgG1, kappa, He Ab; copies: 1 + 1 + 2) heavy 1: not shown heavy 2: not shown light: DIVMTQSPLSLPVTPGEPASISCQASESLVHSNRNTYLHWYLQKPGQSPQLLIYKVSNRFSGVPDRFSGSGSGTDFTLKISRVEAEDVGVYYCSQNTHVPPTFGQGTKVEIERTVAAPSVFIFPPSDEQLKSGTASVVCLLNNFYPREAKVQWKVDNALQSGNSQESVTEQDSKDSTYSLSSTLTLSKADYEKHKVYACEVTHQGLSSPVTKSFNRGEC	90

Results, then the binder that gave them:

He/Con 3a [%]	Binder
93	GpH7-A5/GpH7-B3 variant S239_14T/GpL16-k0 (antibody, human IgG1, kappa, He Ab; copies: 1 + 1 + 2) heavy 1: not shown heavy 2: not shown light: DIVMTQSPLSLPVTPGEPASISCQASESLVHSNRNTYLHWYLQKPGQSPQLLIYKVSNRFSGVPDRFSGSGSGTDFTLKISRVEAEDVGVYYCSQNTHVPPTFGQGTKVEIERTVAAPSVFIFPPSDEQLKSGTASVVCLLNNFYPREAKVQWKVDNALQSGNSQESVTEQDSKDSTYSLSSTLTLSKADYEKHKVYACEVTHQGLSSPVTKSFNRGEC
171	GpH7-A5/GpH7-B3 variant S239_10E/GpL16-k0 (antibody, human IgG1, kappa, He Ab; copies: 1 + 1 + 2) heavy 1: not shown heavy 2: not shown light: DIVMTQSPLSLPVTPGEPASISCQASESLVHSNRNTYLHWYLQKPGQSPQLLIYKVSNRFSGVPDRFSGSGSGTDFTLKISRVEAEDVGVYYCSQNTHVPPTFGQGTKVEIERTVAAPSVFIFPPSDEQLKSGTASVVCLLNNFYPREAKVQWKVDNALQSGNSQESVTEQDSKDSTYSLSSTLTLSKADYEKHKVYACEVTHQGLSSPVTKSFNRGEC
156	GpH7-A5/GpH7-B3 variant S239_09D/GpL16-k0 (antibody, human IgG1, kappa, He Ab; copies: 1 + 1 + 2) heavy 1: not shown heavy 2: not shown light: DIVMTQSPLSLPVTPGEPASISCQASESLVHSNRNTYLHWYLQKPGQSPQLLIYKVSNRFSGVPDRFSGSGSGTDFTLKISRVEAEDVGVYYCSQNTHVPPTFGQGTKVEIERTVAAPSVFIFPPSDEQLKSGTASVVCLLNNFYPREAKVQWKVDNALQSGNSQESVTEQDSKDSTYSLSSTLTLSKADYEKHKVYACEVTHQGLSSPVTKSFNRGEC
